The supplement of paper PMC12042874
± gives the uncertainty stated by the source.

Assay: amyloid nucleation score (Sup35N fusion, yeast selection) (log enrichment); library NNK2; higher = more nucleation; inactive = no reads after selection
In short: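 Growth for 7 days at 30°C on medium lacking adenine and uracil followed a 24-hour induction with 100 μM copper sulfate of psi-negative yeast expressing peptides of 20 random codons fused to Sup35N. Input and output plasmid inserts were sequenced with Illumina, and sequences with under 100 input reads were excluded. Nucleation score is the DiMSum log enrichment of output over input reads, centred on the mode score of non-aggregating sequences.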

Row | Substance | amyloid nucleation score
1 | LRVCNFCTFHFVWWS | 4.8 ± 0.06
2 | AEYRNDMAIEVSSSYCCGY | 3.43 ± 0.082
3 | QTGCSITFLKFGRSAVSTVK | 0.378 ± 0.27
4 | FKHVLDRN | -0.343 ± 0.45
5 | RRNNTGKHFWDWETREGFSM | -0.931 ± 1.1
6 | LCKVCSMITVGSGSGSVYSQ | inactive
7 | LYWSLCDFCN | inactive
8 | LYKSSQKKPQTLNDFQIAMW | 0.193 ± 0.65
9 | VSVGACTHTLYKVRALSQGV | 0.486 ± 0.26
10 | FMSFVYLHVPSANTCI | 3.83 ± 0.045
11 | SVEMRTNLTAGWRILIRWSS | 1.2 ± 0.14
12 | TLKRSRPVLYNLYNGFVVVA | 2.25 ± 0.21
13 | NNPWFCGGSLWLYGSQYSPS | 3.23 ± 0.078
14 | PHDGMHINT | 1.53 ± 0.31
15 | HIVVTKTWAGQRHVQFIM | 1.07 ± 0.26
16 | VAYLNLCLS | inactive
17 | PEFICYCANSACDWSTYCIG | 7.356 ± 0.036
18 | ARYISCRKEFRYLESA | 0.069 ± 0.37
19 | DIKAWLFVRSDIVDGGFADT | -0.405 ± 0.29
20 | GFCPLVRPSCESFRLQERLV | -0.303 ± 0.63
21 | LYDMTCRSSVKGNV | -1.19 ± 0.75
22 | KITMDPGLVRIHNFGQTSLV | 0.408 ± 0.62
23 | SWCIMALRTF | 0.249 ± 0.65
24 | GFSSNLVVLKKPS | -0.249 ± 1.1
25 | LFYGNWPVFKGVLFCAVLVG | 0.092 ± 0.79

Row | Substance | amyloid nucleation score
26 | FFNAR | -0.951 ± 0.62
27 | LCNAKAS | -0.815 ± 0.64
28 | FGMFGSSYYIMY | 2.63 ± 0.093
29 | SWKDYHN | inactive
30 | ICSTVSVIKT | -0.249 ± 0.64
31 | AALCRMFWTAISYWCEWSLG | 0.157 ± 0.55
32 | VARVY | -0.625 ± 0.36
33 | RVLTGWVVA | 0.215 ± 0.76
34 | VISEGRHKSFSL | -0.105 ± 1.1
35 | YRDRINSNYFALDFNILLHY | 3.57 ± 0.046
36 | VVVDGSLRVNLVSQGDPNNV | 1.07 ± 0.25
37 | SCLEMYSHRVPWSFACDDYN | inactive
38 | LTPIPFYNPDNISYYNAFPS | inactive
39 | VVLSCFLQRAPQVYSLF | -0.821 ± 1.1
40 | EFGDQLSDYNWIVCMLGTYI | -0.904 ± 1.1
41 | TCVCWGPCRSV | -0.895 ± 1
42 | MMFNYVFASLGFKRNVHLEC | inactive
43 | VNYYSFLLVFPGLQLTREIN | 6.38 ± 0.09
44 | LCNSYYFFDSCVIEPYIPLL | 5.646 ± 0.054
45 | PWCTWSFVADLENSYRRWVR | 2.57 ± 0.12
46 | DTQGIR | -0.212 ± 0.65
47 | YVLDFSNWIGDTADSIVAV | 0.145 ± 0.56
48 | IWILELFKY | 4.07 ± 0.12
49 | AISLYMFVRDIAKSILRQVC | 0.269 ± 0.5
50 | GKMGYFEWGVLDYIVRLSGT | 0.851 ± 0.27

Row | Substance | amyloid nucleation score
51 | TNRLMVEVALIFRSINCVNR | -0.561 ± 0.38
52 | NRTFSHWTCLYLFLSTLKRE | -1.06 ± 0.76
53 | GMNQCCPD | -0.455 ± 0.61
54 | GVSASQSTMLNCDNVTEDVS | 0.753 ± 0.22
55 | IFRISPSLGKRYGVRPERSW | 1.32 ± 0.38
56 | NPWIAIKWHNTVFLRHIWQM | -0.494 ± 0.22
57 | SSFFRISS | -0.907 ± 1
58 | HMMHSWAFL | 3.81 ± 0.047
59 | RTMWSIFHYSTVVSRVSTMA | 1.23 ± 0.45
60 | TYSLICQSTTKRFWVWKATL | -0.619 ± 1
61 | QCSIVWR | 6.61 ± 0.076
62 | LRWVKKRTAAQN | -0.023 ± 0.63
63 | RRLLLLGSFWGSVHQHVTSS | -0.207 ± 0.4
64 | MIICLEVKTGYST | 3.73 ± 0.068
65 | TTGRWVVLRG | 0.342 ± 0.39
66 | GFYIKVFNSEWYALNLDVRL | 4.67 ± 0.075
67 | SICYFCLFLNIIDSDSIFAV | 5.87 ± 0.059
68 | RHVMSR | 0.419 ± 0.23
69 | LADTLVSESKYKWLF | -0.032 ± 1.1
70 | FNMDGYGRTGVRPFCRYVLN | 0.333 ± 0.61
71 | TPLTVYDFPYNEGCCAV | 1.7 ± 0.34
72 | PVGLY | -0.308 ± 0.42
73 | RHLDSDPRIRKPHFGDPVNT | -0.144 ± 0.55
74 | TNPASAGTYSRSYEFCSLRL | 1.59 ± 0.18
75 | RRFCSCQLSKPLIFPMVLYW | -0.454 ± 0.53

Row | Substance | amyloid nucleation score
76 | VNCYTIWVGNSSRSVHSINA | 5.27 ± 0.083
77 | KAYPFYTLHVGGRDRVIPDW | inactive
78 | LFSILAGS | 0.575 ± 0.46
79 | SSDNRFCVDDFEVGVCGVMR | 2.84 ± 0.07
80 | YCGGFGGFWVEYWWDKYPTC | -0.171 ± 0.23
81 | VFRDLSIERFIRSYVNCDRG | inactive
82 | TFTSRGMMSLGFGRR | 6.01 ± 0.08
83 | YYSFPISIGWVSNCMFVWEV | 6.53 ± 0.073
84 | DLWGTMKFNF | inactive
85 | FSMQSMSKGYVLRPLGMA | -0.098 ± 0.3
86 | SKVLNGFYIWYHQVPQLYPL | -1.19 ± 1
87 | AISPVGYCDSTFVFSTSLCG | 4.13 ± 0.12
88 | VRCRMFMYVMSDLSFMS | 3.6 ± 0.047
89 | SVYENYRVTISLSRSSITSC | -1.1 ± 0.61
90 | MKIYARIMSFLWATVKCVGY | inactive
91 | SFLVISWRADRFAA | 5.124 ± 0.042
92 | SAVHENVIGVFFGVLVYSNA | 2.42 ± 0.1
93 | VPFGQTAVLSEGDSEVGGMK | -0.228 ± 1.1
94 | WLTSS | -0.173 ± 0.54
95 | ILGISCVFY | 7.227 ± 0.072
96 | LISLTPRSSRPSNERNSSTL | 1.63 ± 0.47
97 | VQKTIVKLLAWLCFRGTAYC | 0.486 ± 0.8
98 | CRNQGVCDAGQSLLN | 0.897 ± 0.29
99 | YGLGKTVFTTDGPGMLNGQA | 1.18 ± 0.47
100 | TWTRLALFMLIPSG | 0.464 ± 0.35

Row | Substance | amyloid nucleation score
101 | DMFIVYSSLYRSFLIFESLH | -2.42 ± 0.75
102 | ILGLPSINSSISLHKTITDP | 2.86 ± 0.056
103 | LCYPCRACPGTKNALADRLG | 3.56 ± 0.087
104 | QSAVICVGRCGNCHPPTEL | 2.87 ± 0.1
105 | CMSSDIYFLVFTESEIVSLC | -0.42 ± 0.76
106 | EVEWAFTYHISL | -0.095 ± 0.39
107 | MNYLCASSGVLVKN | -0.055 ± 1.1
108 | SRLRNYLKVLSD | -0.474 ± 1.1
109 | RIWYY | inactive
110 | IAFRTSLYRD | -1.39 ± 0.48
111 | GFIVRMDTMLSSALASYCRL | -0.25 ± 0.63
112 | YRTPYFIAIQDQRYCLVSLG | -0.87 ± 0.45
113 | RNHFLLCFLRCNEEYAQVRG | 3.69 ± 0.059
114 | GKINITAFAWLKAFADRHWI | 0.705 ± 0.8
115 | VSVDHSDFRLNAVSE | 1 ± 0.17
116 | LMYSTFMYHRKHWLLALNQN | 0.034 ± 1.1
117 | GRVFEK | 4.93 ± 0.077
118 | NLMVVRRSDHSRPGNCHWQA | 0.381 ± 0.3
119 | YSVDACMMNGSVDKTVSFR | 0.122 ± 1.1
120 | PISTSLADR | 1.21 ± 0.42
121 | ISFNQHTLSYKNVIFNCAFE | 4.16 ± 0.044
122 | SLFTTINARNATAEQCSMQT | 0.502 ± 0.21
123 | ANMCPYAHRVTGVMFCLLPW | inactive
124 | VVPYS | inactive
125 | RHLISSLRELHTTLNLHRPE | 0.101 ± 0.76

Row | Substance | amyloid nucleation score
126 | RLTVRWAYMSLLTVGQGGIM | 0.21 ± 1
127 | FQFRCCTM | 9.232 ± 0.024
128 | HNNGRSFYEKAMVDLGGAWL | 0.263 ± 0.64
129 | DCSYYPSGIFMGLMFNLIAM | 3.23 ± 0.064
130 | SYCLDDMRPWLHESTLSLSM | -0.033 ± 0.3
131 | VSCTWFGS | 0.797 ± 0.28
132 | NCWNLICLKSSFRR | 9.054 ± 0.05
133 | IFRSMFILTYPGSRYNDEYL | 4.13 ± 0.061
134 | MFNACDNRKFCVGVCSDLK | 0.036 ± 0.41
135 | VLAYMQHFYRCQLCSVYVWG | 4.23 ± 0.11
136 | IWQNVDCCPSWRLCVANHFM | 6.778 ± 0.054
137 | HVVVDCISNCEFTCMWCSAY | 5.57 ± 0.06
138 | NKMGVKVYTRIAQHSGHLFA | 5.21 ± 0.094
139 | INTSNQFFGYLYLWVSRYRY | -1.03 ± 0.54
140 | AWVWFS | -0.845 ± 1.1
141 | LNWIIVCLNN | 4.98 ± 0.058
142 | RGNMESLWQNRKGRCSLNHG | inactive
143 | ARNYGRTWHTSEESWYFGEV | 5.8 ± 0.081
144 | VYLFGGIRFDR | 4.04 ± 0.049
145 | YHCPVSW | -0.254 ± 0.32
146 | TQLTDASSELLPPGSRLQCS | 1.03 ± 0.36
147 | RVSLLMYGWRVGRTNVCGLC | 1.41 ± 0.53
148 | NGSDRWQASHRTNWGMVGFG | 0.597 ± 0.44
149 | GILGQGDYYLRN | -0.422 ± 1
150 | GVMRSCCEIWTFSIVFRMYT | 0.604 ± 0.31

Row | Substance | amyloid nucleation score
151 | GWQWRWLHYRSVRINEEMVS | 0.342 ± 0.34
152 | SELKMWYTDMVSTSKLDCIL | -0.125 ± 0.46
153 | LVLYGNVA | 0.28 ± 0.74
154 | ASHMRSDSAL | inactive
155 | CWLGASTSNGLPAAGPSGLH | 0.868 ± 0.55
156 | IRWAQTFILLFVCSSARPTQ | 0.712 ± 0.36
157 | QRGFLRVPSLWCSFCLH | -0.176 ± 1.1
158 | LYTFGFSFLWKYSRFHV | inactive
159 | PDVVNNGGSYHLHWGCWCW | 3.25 ± 0.14
160 | TIFMAYTWLNYTVAFLSNVR | -1.01 ± 0.61
161 | LLSDLFCIFVLRKSRSGGWS | 1.04 ± 0.34
162 | WLVRLVIGGFTQSGMWLTEI | 1.06 ± 0.16
163 | ASYLCFPNNVVLSLHNHVFS | 4.834 ± 0.048
164 | YWLNMWFYRSSASYRSMDMD | -0.713 ± 0.55
165 | IVLCWLEGG | 0.516 ± 0.31
166 | AYFRLWVRAWTLASGE | 0.938 ± 0.2
167 | TFRLRECWCDADLRVGVMSL | 0.778 ± 0.47
168 | HLVIGFHYSCHGFFLRSFGH | inactive
169 | KFSGRYWTGIEGVRISVCLH | -0.778 ± 0.56
170 | VGLCSPWKHALFD | 3.33 ± 0.073
171 | TMGYEFMQILLDLRNLSCSY | 3.64 ± 0.097
172 | AFGNNDDLGARRYGMATPGR | 0.746 ± 0.62
